Fewer inactive variants are shown than the library holds.
Key:
biotinyl-Phe-oxazolone = assay: self-aminoacylation, catalytic enhancement (BFO) (fold over background); higher = more active; k-Seq, kA / k0A0; sequences stand for … in GGGAAUGGAUCCACAUCUACGAAUUC…UUCACUGCAGACUUGACGAAGCUG
Outline: (§1)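 Mutagenized RNA pools (0.43 μM; 21-nt variable region) were treated with 2–1250 μM of each biotinyl-aminoacyl-oxazolone. Conditions were 50 μL HEPES/NaCl/KCl/MgCl2/CaCl2 buffer, 5% acetonitrile, pH 6.9–7.0, room temperature, 90 minutes. Catalytic enhancement, the median kA relative to the uncatalyzed rate, was derived from streptavidin capture, qPCR and Illumina sequencing.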

biotinyl-Ile-oxazolone = assay: self-aminoacylation, catalytic enhancement (BIO) (fold over background); higher = more active; k-Seq, kA / k0A0; sequences stand for … in GGGAAUGGAUCCACAUCUACGAAUUC…UUCACUGCAGACUUGACGAAGCUG
Outline: as §1

biotinyl-Met-oxazolone = assay: self-aminoacylation, catalytic enhancement (BMO) (fold over background); higher = more active; k-Seq, kA / k0A0; sequences stand for … in GGGAAUGGAUCCACAUCUACGAAUUC…UUCACUGCAGACUUGACGAAGCUG
Outline: as §1

biotinyl-Val-oxazolone = assay: self-aminoacylation, catalytic enhancement (BVO) (fold over background); higher = more active; k-Seq, kA / k0A0; sequences stand for … in GGGAAUGGAUCCACAUCUACGAAUUC…UUCACUGCAGACUUGACGAAGCUG
Outline: as §1

biotinyl-Leu-oxazolone = assay: self-aminoacylation, catalytic enhancement (BLO) (fold over background); higher = more active; k-Seq, kA / k0A0; sequences stand for … in GGGAAUGGAUCCACAUCUACGAAUUC…UUCACUGCAGACUUGACGAAGCUG
Outline: as §1

biotinyl-Trp-oxazolone = assay: self-aminoacylation, catalytic enhancement (BWO) (fold over background); higher = more active; k-Seq, kA / k0A0; sequences stand for … in GGGAAUGGAUCCACAUCUACGAAUUC…UUCACUGCAGACUUGACGAAGCUG
Outline: as §1

Sequence | self-aminoacylation (biotinyl-Phe-oxazolone) | self-aminoacylation (biotinyl-Ile-oxazolone) | self-aminoacylation (biotinyl-Met-oxazolone) | self-aminoacylation (biotinyl-Val-oxazolone) | self-aminoacylation (biotinyl-Leu-oxazolone) | self-aminoacylation (biotinyl-Trp-oxazolone)
AUUGCCCCGGUCAUCGAGUGA [Fam2.1 aminoacylation ribozyme variant] | 37.5 | 2.79 | 5.22 | 3.18 | 6.75 | 6.57
AUUGACCUAGGUAAUCGGGUG [Fam2.2 aminoacylation ribozyme variant] | 15 | 3.19 | 2.92 | 3 | 3.86 | 3.73
CUAAUUCAAACAAUCCGUCUG [Fam1A.1 aminoacylation ribozyme variant] | 0.937 | 0.682 | 0.635 | 0.764 | 0.578 | 0.609
AUUCACCUAGGGCAUCGGGUG [Fam2.2 aminoacylation ribozyme variant] | 20.3 | 2.78 | 3.55 | 3 | 4.05 | 3.4
CCACACUUCAACCCAUCGGUC [Fam1B.1 aminoacylation ribozyme variant] | 0.791 | 1.34 | 1.11 | 1.72 | 1.24 | 1.04
AAGUUUGCCUAUAGUCGCAAG [Fam3.1 aminoacylation ribozyme variant] | 0.956 | 0.844 | 0.706 | 0.981 | 0.718 | 0.784
AUUACCCAGGUCAUGGAGUGA [Fam2.1 aminoacylation ribozyme variant] | 8.43 | 2.85 | 3.83 | 3.01 | 4.67 | 4.7
CUGCUUCAAACAAUCGGUUUG [Fam1A.1 aminoacylation ribozyme variant] | 223 | 2.07 | 2.38 | 2.1 | 3.93 | 84.2
CUACUUCUAACAAUCGGACUG [Fam1A.1 aminoacylation ribozyme variant] | 0.602 | 0.566 | 0.398 | 0.572 | 0.495 | 0.419
AAGUUUGCUUAUAGUCUCAAG [Fam3.1 aminoacylation ribozyme variant] | 1.41 | 1.05 | 1.08 | 0.888 | 0.902 | 0.69
CCACAUUUCAAACAAUCGGUC [Fam1B.1 aminoacylation ribozyme variant] | 17.8 | 1.41 | 1.33 | 1.28 | 1.31 | 9.95
CCACAUUUCAAGCAAUCGCUC [Fam1B.1 aminoacylation ribozyme variant] | 2.39 | 2.6 | 2 | 2.42 | 2.17 | 2.38
AUGCACCUAGGUCAUCGGGCG [Fam2.2 aminoacylation ribozyme variant] | 13.5 | 2.08 | 2.37 | 2.47 | 3.22 | 2.53
AAGUUUGUUAAUAGGCGCAAG [Fam3.1 aminoacylation ribozyme variant] | 1.05 | 0.767 | 0.799 | 0.652 | 0.556 | 0.763
AAGUUUGCUAAUAGUCGCAGU [Fam3.1 aminoacylation ribozyme variant] | 8.27 | 1.33 | 1.91 | 1.34 | 1.66 | 3.14
AUUACUCUGGUCAUCGAGUGU [Fam2.1 aminoacylation ribozyme variant] | 4.35 | 2.52 | 4.24 | 2.57 | 4.37 | 3.92
CUACAUCAAACAAUCCGUCUG [Fam1A.1 aminoacylation ribozyme variant] | 0.983 | 0.905 | 0.759 | 0.877 | 0.755 | 0.615
AUUCCCCUAGGUCGUCGGGUG [Fam2.2 aminoacylation ribozyme variant] | 31.9 | 5.97 | 7.13 | 5.97 | 9.19 | 7.42
AUUCUCCUAGAUCAUCGGGUG [Fam2.2 aminoacylation ribozyme variant] | 34.7 | 3.28 | 4.32 | 2.68 | 5.3 | 4.66
AUCCACCUAGGUCAUCGGAUG [Fam2.2 aminoacylation ribozyme variant] | 0.726 | 1.4 | 1.19 | 1.65 | 1.11 | 1.04
AAGUUUGCUAAGAGUCGCAAU [Fam3.1 aminoacylation ribozyme variant] | 1.24 | 1.42 | 0.797 | 1.01 | 1.05 | 1.74
AAGUUGGCUAAUAGUCGGAAG [Fam3.1 aminoacylation ribozyme variant] | 2.31 | 1.47 | 1.22 | 1.48 | 1.1 | 1.15
CCACACUUCUAGCAAUCGAUC [Fam1B.1 aminoacylation ribozyme variant] | 0.626 | 0.556 | 0.447 | 0.716 | 0.457 | 0.432
CUAUUUCAAACAAUCGGUCUG [Fam1A.1 aminoacylation ribozyme variant] | 8.5 | 0.819 | 0.789 | 0.781 | 0.838 | 4.39
AAGUUUGCUAAUAGUCGUAAU [Fam3.1 aminoacylation ribozyme variant] | 1.24 | 1.19 | 1.19 | 1.23 | 1.07 | 1.13
CUAAUUCAAAGAAUCGGUCUG [Fam1A.1 aminoacylation ribozyme variant] | 0.767 | 0.805 | 0.742 | 0.842 | 0.806 | 0.78

Reference: the supplement of paper PMC9233669
